Measurements reported in publication PMC3229523, “Identification of Lactoferricin B Intracellular Targets Using an Escherichia coli Proteome Chip” (PLoS ONE, 2011).
Ends that are not written are not given here. * marks the point of attachment. Biotin = O=C1N[C@H]2[C@H](CS[C@H]2CCCCC(=O)*)N1

Experiments:
Test in all cases: peptide or protein array; E. coli proteome chip: purified His-tagged proteins printed in duplicate on Fullmoon slides, blocked with 1% BSA; 10 nM N-terminal biotinylated LfcinB with 1% BSA, room temperature, 1 h; detected with DyLight 649-labeled streptavidin, ratio to DyLight 549-labeled anti-His antibody; ProCAT normalisation, local cut-off; triplicate chips
Conditions in all cases: both partners purified
[1] = target: T1, YbaQ (E. coli K-12, UniProt P0A9T6 1-113)
T1 construct: YbaQ, E. coli K-12
T1 sequence (looked up): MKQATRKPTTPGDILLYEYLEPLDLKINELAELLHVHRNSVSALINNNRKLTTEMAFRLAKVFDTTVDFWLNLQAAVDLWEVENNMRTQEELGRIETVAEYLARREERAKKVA

[2] = target: T2, phosphoenolpyruvate carboxylase (E. coli K-12, UniProt P00864 1-883)
T2 construct: Ppc, phosphoenolpyruvate carboxylase, E. coli K-12; also called Ppc
T2 sequence (looked up): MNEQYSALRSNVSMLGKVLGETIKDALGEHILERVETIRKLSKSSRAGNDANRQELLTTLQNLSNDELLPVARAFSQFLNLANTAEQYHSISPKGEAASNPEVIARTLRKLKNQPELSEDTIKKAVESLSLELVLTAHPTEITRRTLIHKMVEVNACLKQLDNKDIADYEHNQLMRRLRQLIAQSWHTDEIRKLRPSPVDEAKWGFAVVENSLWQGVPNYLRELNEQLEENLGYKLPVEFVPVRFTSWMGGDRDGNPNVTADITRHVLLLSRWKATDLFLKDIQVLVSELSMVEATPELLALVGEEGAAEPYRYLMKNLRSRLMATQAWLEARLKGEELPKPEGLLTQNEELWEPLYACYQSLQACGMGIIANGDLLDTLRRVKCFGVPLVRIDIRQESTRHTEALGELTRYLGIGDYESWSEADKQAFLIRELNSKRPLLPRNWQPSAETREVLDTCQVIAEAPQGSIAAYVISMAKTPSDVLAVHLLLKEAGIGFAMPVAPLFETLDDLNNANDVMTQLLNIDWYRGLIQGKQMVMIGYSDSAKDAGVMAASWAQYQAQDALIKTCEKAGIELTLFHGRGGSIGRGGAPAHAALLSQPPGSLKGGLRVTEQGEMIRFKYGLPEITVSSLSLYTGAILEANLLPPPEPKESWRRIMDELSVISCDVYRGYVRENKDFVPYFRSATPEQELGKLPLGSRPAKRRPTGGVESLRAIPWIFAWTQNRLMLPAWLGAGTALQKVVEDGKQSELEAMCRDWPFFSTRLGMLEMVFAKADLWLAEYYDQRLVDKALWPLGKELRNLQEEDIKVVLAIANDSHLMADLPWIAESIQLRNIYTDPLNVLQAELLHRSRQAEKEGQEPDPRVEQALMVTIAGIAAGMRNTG

[3] = target: T3, YhhI (E. coli K-12, UniProt P28912 1-378)
T3 construct: YhhI, E. coli K-12
T3 sequence (looked up): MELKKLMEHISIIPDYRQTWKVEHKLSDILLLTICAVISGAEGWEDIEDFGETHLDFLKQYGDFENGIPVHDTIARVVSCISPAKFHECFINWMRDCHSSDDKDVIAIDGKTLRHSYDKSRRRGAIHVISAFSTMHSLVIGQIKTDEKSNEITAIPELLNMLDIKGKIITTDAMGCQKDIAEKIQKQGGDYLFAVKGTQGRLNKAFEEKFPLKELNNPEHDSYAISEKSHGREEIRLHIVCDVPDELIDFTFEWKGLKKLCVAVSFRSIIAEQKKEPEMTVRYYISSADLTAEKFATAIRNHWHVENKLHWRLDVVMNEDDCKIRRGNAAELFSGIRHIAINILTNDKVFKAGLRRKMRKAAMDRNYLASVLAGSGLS

[4] = target: T4, Hha (E. coli K-12, UniProt P0ACE3 1-72)
T4 construct: Hha, E. coli K-12
T4 sequence (looked up): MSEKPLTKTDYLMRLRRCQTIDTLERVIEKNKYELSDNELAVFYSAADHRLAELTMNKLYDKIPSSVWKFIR

[5] = target: T5, YchA (E. coli K-12, UniProt P0AGM5 1-269)
T5 construct: YchA, E. coli K-12
T5 sequence (looked up): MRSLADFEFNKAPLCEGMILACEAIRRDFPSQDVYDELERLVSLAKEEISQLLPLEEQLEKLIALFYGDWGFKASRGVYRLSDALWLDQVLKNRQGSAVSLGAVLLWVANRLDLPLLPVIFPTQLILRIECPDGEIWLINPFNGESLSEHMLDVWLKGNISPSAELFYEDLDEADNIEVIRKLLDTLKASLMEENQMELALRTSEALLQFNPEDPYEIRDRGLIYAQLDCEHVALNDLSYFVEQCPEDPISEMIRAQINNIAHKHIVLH

[6] = target: T6, YbcQ (E. coli K-12, UniProt Q47274 1-127)
T6 construct: YbcQ, E. coli K-12
T6 sequence (looked up): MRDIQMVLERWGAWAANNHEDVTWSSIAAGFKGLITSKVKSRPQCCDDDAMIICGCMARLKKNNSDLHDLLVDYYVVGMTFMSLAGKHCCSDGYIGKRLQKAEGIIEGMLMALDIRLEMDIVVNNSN

Measured: binding result

B1: N-terminal biotinylated Lactoferricin B (peptide, UniProt P24627 36-60, looked up)
peptide: Biotin-FKCRRWQWRMKKLGAPSITCVRRAF
modifications: ends and bridges not checked
notes: lactoferricin B (LfcinB), cationic antimicrobial peptide of 25 amino acids; also called biotinylated LfcinB; biotin-labeled LfcinB; source: bought: Kelowna Inc
binds: [1] | [2] | [3] | [4] | [5] | [6]
